The target in data set [1] is Full-length human ADAM8 on cells (HEK293-ADAM8 stable or transfected cells; also endogenous ADAM8 of breast cell lines and PDX tumors) (human) (UniProt P78325).
Data set [2] concerns the target Recombinant human ADAM8 (rHuADAM8) ectodomain protein (aa 17-497), ACRO Biosystems AD8-H5223 (human) (UniProt P78325). Briefly: adhesion of α9β1 integrin CHO cells to coated rHuADAM8, antibody 20 µg/ml, vs isotype control IgG; mean ± S.D., n=3.
The target in data set [3] is Full-length human ADAM8 on cells (HEK293-ADAM8 stable or transfected cells; also endogenous ADAM8 of breast cell lines and PDX tumors) (human) (UniProt P78325). Briefly: FACS, HEK293-ADAM8 cells, column 10 µg/ml, negative control.
The target is the same in data set [4]. Briefly: FACS, HEK293-ADAM8 cells, column 1 µg/ml, negative control.
Data set [5] shares this target. Briefly: FACS, HEK293-ADAM8 cells, column 0.1 µg/ml, negative control.
In data set [6] the target is T1, Recombinant human ADAM8 (rHuADAM8) ectodomain protein (aa 17-497), ACRO Biosystems AD8-H5223 (human, UniProt P78325 17-497).
T1 construct: Bought protein made in HEK293 cells; The protein clips off its own prodomain (aa 17-191); also called rhADAM8; immunogen
T1 sequence: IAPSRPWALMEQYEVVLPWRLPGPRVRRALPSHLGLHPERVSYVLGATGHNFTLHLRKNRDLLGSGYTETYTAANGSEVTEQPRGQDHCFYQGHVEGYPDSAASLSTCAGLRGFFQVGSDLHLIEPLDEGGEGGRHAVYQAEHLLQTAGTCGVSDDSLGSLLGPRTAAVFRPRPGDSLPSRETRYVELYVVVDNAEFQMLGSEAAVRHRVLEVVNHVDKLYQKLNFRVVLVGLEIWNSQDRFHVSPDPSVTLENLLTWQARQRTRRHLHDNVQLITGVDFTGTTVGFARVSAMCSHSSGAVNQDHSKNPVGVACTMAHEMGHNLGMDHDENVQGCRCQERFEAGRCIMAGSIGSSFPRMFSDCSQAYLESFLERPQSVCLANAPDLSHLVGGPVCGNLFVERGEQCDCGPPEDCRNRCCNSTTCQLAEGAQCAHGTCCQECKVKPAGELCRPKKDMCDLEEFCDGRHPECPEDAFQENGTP
Briefly: ELISA on coated rHuADAM8, antibody 0 to 2.5 nM.

The target in data set [7] is Quenched fluorescent CD23 peptide (Biozyme, PEPDAB013m001).

Take “MAB1031 anti-ADAM8 antibody (R&D Systems)”: in data set [1], the % inhibition of CD23 cleavage (MP activity), HEK293 cells co-expressing CD23 and ADAM8, antibody 20 µg/ml was 65.8 % inhibition; the % inhibition of transendothelial migration of MDA-MB-231 cells through HUVEC, antibody 20 µg/ml was 42.4 % inhibition. For the same molecule, the % inhibition of α9β1 integrin binding to ADAM8 in data set [2] is 63.4 % inhibition.
As to mIgG (antibody), the MFI in data set [3] was 4 MFI; in data set [4], 3.2 MFI; in data set [5], 3.3 MFI.

B1: chADP13-IgG1 (antibody, V domains shown)
VH: EVQLQQSGPEMVKPGTSVKISCKASGYTFTDYYINWVKQSHGKSLEWIGDISPNIGGATYNPKFKGKAILTVDKSARTAYMELRSLTSEDSAVYCCTRGGSSYPYFYAMDYWGQGTSVTVSS
VL: DIVMSQSPSSLAVSVGEKVTMSCKSSQSLLYSSNQKKYLAWYQQKPGQSPKLLIYWASTRESGVPDRFTGSGSGTDFTLTISSVKAEDLAVYYCQQFYSYPYTFGGGTKLEIKR
notes: Mouse ADP13 VL and VH joined to germline human IgG1 CL and CH; made in CHO cells; also called chimeric ADP13
Turning to B1, the Kd in data set [6] came out at 79.5 pM.

B2: chADP2-IgG1 (antibody, V domains shown)
VH: EVKLVESGGGLVQPGGSLSLSCAASGFSFPDYYMSWVRQPPGKALEWLGFIRDSANGYTTEYIASVKGRFTFSRDNSQSILYLQMNALRAEDSATYYCARYSRYYGMDYWGQGTSVTVSS
VL: SIVMTQTPKILLVSAGDRVTITCKASQTVNYDVAWYQQKPGQSPKPVIYFASNRYTGVPDRFTGSGFGTDFTFTISTVQAEDLAVYFCQQDYSAPWTFGGGTKLEIKR
notes: Mouse ADP2 VL and VH joined to germline human IgG1 CL and CH; made in CHO cells; also called chimeric ADP2
With B2, in data set [6], the Kd stood at 36.6 pM.

B3: Recombinant human ADAM8 (rHuADAM8) ectodomain protein (aa 17-497), ACRO Biosystems AD8-H5223 (protein)
chain: IAPSRPWALMEQYEVVLPWRLPGPRVRRALPSHLGLHPERVSYVLGATGHNFTLHLRKNRDLLGSGYTETYTAANGSEVTEQPRGQDHCFYQGHVEGYPDSAASLSTCAGLRGFFQVGSDLHLIEPLDEGGEGGRHAVYQAEHLLQTAGTCGVSDDSLGSLLGPRTAAVFRPRPGDSLPSRETRYVELYVVVDNAEFQMLGSEAAVRHRVLEVVNHVDKLYQKLNFRVVLVGLEIWNSQDRFHVSPDPSVTLENLLTWQARQRTRRHLHDNVQLITGVDFTGTTVGFARVSAMCSHSSGAVNQDHSKNPVGVACTMAHEMGHNLGMDHDENVQGCRCQERFEAGRCIMAGSIGSSFPRMFSDCSQAYLESFLERPQSVCLANAPDLSHLVGGPVCGNLFVERGEQCDCGPPEDCRNRCCNSTTCQLAEGAQCAHGTCCQECKVKPAGELCRPKKDMCDLEEFCDGRHPECPEDAFQENGTP
As to B3, in data set [7], the “fluorescence released from a quenched CD23 peptide over 24 hr” value was “An increase in fluorescence was seen over time in samples with rHuADAM8, which was inhibited in the presence of the chelating agent EDTA”.

Source of the values: patent US20220227882A1 (TRUSTEES OF TUFTS COLLEGE, published 2022).
